# According to paper PMC11542851 (PLOS Pathogens, 2024):
# Substitutions are numbered along the chain they refer to. Read-outs that look alike come from different tables or passages of the source.
# B1: C68.183 (antibody, V domains shown)
# VH: EVQLLESGGGLVQPGGSLRLSCVASGFTFRNFAMSWVRQAPGKGLEWVSAISGSGDSTYYADSVKGRFTISRDNSKNTLYLQVNSLRVEDTAIYYCAKGSRGSTDYFDSWGQGTLVTVSS
# VL: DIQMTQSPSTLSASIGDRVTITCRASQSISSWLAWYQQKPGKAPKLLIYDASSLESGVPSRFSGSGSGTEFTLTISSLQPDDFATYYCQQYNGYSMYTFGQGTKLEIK
# B2: C68.239 (antibody, V domains shown)
# VH: EVQLLESGGGLVQPGGSLRLSCAASGFTFSSYAMSWVRQAPGKGLEWVSAISGGGDNTYYADSVKGRFTISRDNSKNTLYLQMNSLRAEDTAVYFCAKNPITVVPAAWDRGYFDLWGRGTLVTVSS
# VL: SYELTQPPSVSVAPRKTARITCGGNNIGSYSVHWYQQRPGQAPVLVVHDDSDRPSGIPERFSGSNSGNTATLTISRVEAGDEADYYCQVWDSSSDHRGVFGGGTKLTVL
# B3: C68.61 (antibody, V domains shown)
# VH: EVQLVQSGAEVKKPGESLKISCKGSAYIFTRYWIGWVRQMPGKGLEWMGIIYPGDSDTRYSPSFQGQVTISADKSISTAYLQWSSLKASDTAMYYCARSGTTNYFDYWGQGTLVTVSS
# VL: DIQLTQSPSTLSASVGDRVTITCRASQSISSWLAWYQQKPGKAPKLLIYDASSLDSGVPSRFSGSGSGTDFTLTISSLQPDDFATYYCQQFNSYWTFGQGTKVEIK
# B4: C68.200 (antibody, V domains shown)
# VH: EVQLLESGGGLVQPGGSLRLSCTASGFTFSRYALTWVRQAPGKGLEWVSAISGSGGNTNYADSVKGRFTISRDNSKNTLYLQMNSLRAEDTAVYYCAKSPRYNNDYFDFWGQGTLVTVSS
# VL: B3 VL with D55E, D70E, F91Y, S93T, Y94F, W95I, Q99H, K102R, V103L
# B5: C68.203 (antibody, V domains shown)
# VH: B4 VH with W47C, I51F, G56D, N57S, N59Y, N104S
# VL: B3 VL with D55E, D70E, F91Y, Y94F, W95I, K102R, V103L
# B6: C68.185 (antibody, V domains shown)
# VH: QVQLVQSGAEVKKPGASVKVSCKTSGYAFTDHYVHWVRQAPGQGLEWMGVINPSGVGTSYAQMFQDRVTLTSDTSTSTVYMVLSSLRSEDTAVYYCVRDDYGVPARGWFDPWGQGTLVTVSS
# VL: EVVLTQSPATLSLSPGERATLSCRASQSISSYLAWYQQKPGQAPRLLIYDASNRATGVPARFSGSGSGADFTLTISSLEAEDFALYYCQHRSNWLYTFGQGTKLEIK
# B7: C68.88 (antibody, V domains shown)
# VH: QVQLQESGPGLVKPSETLSLTCSVSGGPISSSRYYWGWIRQSPGEGLEWIGTIYYSGSTYYNPSFKSRVTISVDTSKNQFSLKLSSVTAADTAVYYCATRCYDFWSGYYNREMLWFDCWGQGTLVTVSS
# VL: NFMLTQPHSVSESPGKTVTISCTRSSGSIASNYVQWYQQRPGSSPTTVIYENNQTPSGVPDRFSGSIDSSSNSASLTISGLKTEDEADYYCQSYDSSVVVFGGGTKLTVL
# B8: C68.327 (antibody, V domains shown)
# VH: EVQLLESGGGLVQPGGSLRLSCAASGFTFGSYAMSWVRQAPGKGLEWVSAISGSGGSTYYADSVKGRFTISRDNSKNTLYLQMNSLRAEDTAVYNCAKDLWDGFHWFDSWGQGTLVTVSS
# VL: DIQMTQSPSSVSASVGDRVTITCRASQGISSWLAWYQQKPGKAPNLLIYSASSLQSGVPSRFSGSGSGTDFTLTISSLQPEDFATYYCQQANSFPITFGQGTRLEIK
# B9: C68.348 (antibody, V domains shown)
# VH: QVQLQESGPRLVKSSGTLSLTCAVSGGSISSSKWWSWVRQPPGKGLEWIGEVYHGGSTNYNPSLKSRVTISVDKAKNQFSLKLSSVTAADSAVYYCASLDSAAVFDYWGQGTLVTVSS
# VL: QSALTQPASVSGSPGQSITISCTGTSSDVGRFNYVSWYQQHPGKAPKLLIYDVSNRPSGVSNRFSGSKSGNTASLTISGLQAEDEADYYCNSYTSSSTLYVFGTGTKVTVL
# B10: C68.201 (antibody, V domains shown)
# VH: EVQLVQSGAEVKKPGESLKISCTGSGYSFAYYWIGWVRQMPGKGLEWMGNIYPGDSDTRYSPSFQGQITISSDKSISTAYLQWSSLKASDTAMYYCATRYSGTHYVGIDAFEIWGQGTMVTVSS
# VL: not shown
# Key:
# [1] = target: T1, SARS-CoV-2 RBD subunit (recombinant) (SARS-CoV-2 Wuhan-Hu-1, UniProt P0DTC2); assay: ELISA; settings: both partners purified
# T1 construct: source: bought: Sino Biologics
# [2] = target: RsSHC014 RBD, yeast-displayed (Bat SARS-like coronavirus RsSHC014, UniProt U5WLK5); assay: flow cytometry on cells; settings: one partner purified
# [3] = target: SARS-CoV-1 RBD, yeast-displayed (SARS-CoV-1, strain  (P59594 …, UniProt P59594)); assay: flow cytometry on cells; settings: one partner purified
# [4] = target: SARS-CoV-2 Omicron XBB recombinant spike protein (trimer) (SARS-CoV-2 Omicron XBB (entry: XBB.1), strain)
# [5] = target: T1, SARS-CoV-2 RBD subunit (recombinant)
binder,measurement,setting,value
B1,binding result,[1],binds
same,binding result,[2],binds
B2,binding result,[1],binds
same,binding result,[2],binds
B3,binding result,[2],binds
B4,binding result,[1],binds
B5,binding result,[1],binds
B6,binding result,[1],binds
same,fold lower binding than to SARS-CoV-1 RBD,[2],~10 fold
same,binding result,[3],binds
B7,binding result,[1],binds
same,binding result,[2],binds
B8,binding result,[1],binds
B9,binding result,[1],binds
B10,binding result,[4],binds
same,binding result,[5],binds
